From article PMC7367873, “Dissecting the sequence determinants for dephosphorylation by the catalytic subunits of phosphatases PP1 and PP2A” (Nature Communications, 2020)

Target: T1, PP2Ac (Homo sapiens, UniProt P67775)
T1 construct: purchased Cayman Chemical 10011237
Test: Phosphopeptide library dephosphorylation followed by mass spectrometry (PLDMS), PP2Ac
Assay type: biochemical
Conditions: all libraries, 25 nM PP2Ac, 100 µM library, 4 min, 25 °C, pH 7.5; library distribution 60% Ser to 40% Thr
Excerpt: In order to determine phosphatase specificity on the phosphopeptide level, we developed an in vitro phosphopeptide library dephosphorylation followed by mass spectrometry approach (PLDMS, Fig. 1a; see the methods for details). In this approach, phosphopeptide libraries would be treated with PP1, PP2A, or left untreated, purified, and analyzed by LC-MS/MS measurements. In the first step, design, synthesis, and validation of phosphopeptide libraries were required. The phosphopeptide libraries were designed to yield an even distribution of amino acids in the different randomized positions and to give high coupling efficiency during synthesis, thus reducing the number of by-products. […]
The individual libraries were incubated with recombinant PP1c or PP2Ac (Supplementary Fig. 1a) and the reaction was stopped by shifting the pH from 7.5 to 3 when 30–50% of the library was dephosphorylated, depending on phosphatase activity (see the methods for details, Supplementary Fig. 1b). Peptides were then separated from the recombinant protein by size-exclusion chromatography (SEC) (Supplementary Fig. 1c) and analyzed by LC-MS/MS (Fig. 1a). […]
For LC-MS analysis, the treated/ctrl peptide libraries were purified by SEC. […] A 0.1 M ammonium acetate buffer (pH 5) was used throughout the column equilibration and purification and the elution profile was recorded at 280 nm. […]

T1 sequence (P67775 1-308 limits assumed): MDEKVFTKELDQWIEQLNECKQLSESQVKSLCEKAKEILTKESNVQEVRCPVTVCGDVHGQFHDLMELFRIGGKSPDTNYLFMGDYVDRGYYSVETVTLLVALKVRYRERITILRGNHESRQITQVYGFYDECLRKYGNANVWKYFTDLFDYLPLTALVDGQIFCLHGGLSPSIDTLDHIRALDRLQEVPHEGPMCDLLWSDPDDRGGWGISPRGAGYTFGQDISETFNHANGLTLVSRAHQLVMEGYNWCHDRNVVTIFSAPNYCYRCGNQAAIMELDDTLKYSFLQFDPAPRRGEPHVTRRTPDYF

Substance: PP2Ac: His-tagged recombinant PPP2CA ΔL309, purchased from Cayman Chemical
- pThr share of all sites dephosphorylated by PP2Ac: 83%
